Experimental data from patent US20260217843A1.

Assays:
[1] = biological target: hOX40L added as soluble protein in cell assays (human) (UniProt P23510); test: cell-based or functional assay
[2] = biological target: Recombinant Human OX40L Protein, His Tag (Acro Cat. IL3-H52H4) (human) (UniProt P23510); test: SPR (Biacore 8K), antibody captured, human OX40L injected, 1:1 fit
Recombinant Human OX40L Protein, His Tag (Acro Cat. IL3-H52H4) (human), sequence (P23510 51-183 limits assumed): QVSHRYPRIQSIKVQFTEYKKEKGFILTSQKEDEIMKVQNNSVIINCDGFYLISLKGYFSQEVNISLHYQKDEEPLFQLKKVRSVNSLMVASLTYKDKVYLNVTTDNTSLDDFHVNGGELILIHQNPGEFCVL

hOX40L added as soluble protein in cell assays (human), sequence (P23510 51-183 limits assumed): as above

B1: positive control based on the sequences of the anti-hOX40L antibody amlitelimab (antibody, IgG4, V domains shown)
VH: EVQLVESGGGLVQPGGSLRLSCAASGFTFSNYAMNWVRQAPGKGLEWVSTISGSGGATRYADSVKGRFTISRDNSRNTVYLQMNSLRVEDTAVFYCTKDRLIMATVRGPYYYGMDVWGQGTTVTVSS
VL: DIQMTQSPSSLSASVGDRVTITCRASQSISSYLNWYQQKPGKAPNLLIYAASSLQSGVPSRFSGSGSETDFTLTISSLQPEDFATYYCQQSHSVSFTFGPGTKVDIK
Q: How did the IC50, luminescence (RLU), hOX40 reporter cells with 50 ng/mL hOX40L [1] turn out when B1 was run?
A: 1.17 nM

Q: What about the Mean IFNγ concentration, MLR + OX40L (1000 ng/ml); donor pairing 1; antibody 4 nM [1] of the same binder?
A: 201 pg/mL

Q: And the Mean IFNγ concentration, MLR + OX40L (1000 ng/ml); donor pairing 1; antibody 20 nM [1]?
A: 41.4 pg/mL

Q: What about the Mean IFNγ concentration, MLR + OX40L (1000 ng/ml); donor pairing 1; antibody 100 nM [1] of the same binder?
A: 145 pg/mL

Q: What about the Mean IFNγ concentration, MLR + OX40L (1000 ng/ml); donor pairing 3; antibody 4 nM [1] of the same binder?
A: 1050 pg/mL

Q: And the Mean IFNγ concentration, MLR + OX40L (1000 ng/ml); donor pairing 3; antibody 20 nM [1]?
A: 520 pg/mL

Q: And the Mean IFNγ concentration, MLR + OX40L (1000 ng/ml); donor pairing 3; antibody 100 nM [1]?
A: 75.4 pg/mL

Q: What about the Mean IFNγ concentration, MLR + OX40L (1000 ng/ml); donor pairing 4; antibody 4 nM [1] of the same binder?
A: 1170 pg/mL

Q: And the Mean IFNγ concentration, MLR + OX40L (1000 ng/ml); donor pairing 4; antibody 20 nM [1]?
A: 424 pg/mL

Q: And the Mean IFNγ concentration, MLR + OX40L (1000 ng/ml); donor pairing 4; antibody 100 nM [1]?
A: 161 pg/mL

Q: And the Mean IFNγ concentration, MLR + OX40L (1000 ng/ml); donor pairing 5; antibody 4 nM [1]?
A: 1350 pg/mL

Q: What about the Mean IFNγ concentration, MLR + OX40L (1000 ng/ml); donor pairing 5; antibody 20 nM [1] of the same binder?
A: 780 pg/mL

Q: What about the Mean IFNγ concentration, MLR + OX40L (1000 ng/ml); donor pairing 5; antibody 100 nM [1] of the same binder?
A: 878 pg/mL

Q: And the Mean IFNγ concentration, MLR + OX40L (1000 ng/ml); donor pairing 6; antibody 4 nM [1]?
A: 780 pg/mL

Q: What about the Mean IFNγ concentration, MLR + OX40L (1000 ng/ml); donor pairing 6; antibody 20 nM [1] of the same binder?
A: 279 pg/mL

Q: And the Mean IFNγ concentration, MLR + OX40L (1000 ng/ml); donor pairing 6; antibody 100 nM [1]?
A: 202 pg/mL

Q: And the Mean IFNγ concentration, MLR + OX40L (1000 ng/ml); donor pairing 8; antibody 4 nM [1]?
A: 17.3 pg/mL

Q: What about the Mean IFNγ concentration, MLR + OX40L (1000 ng/ml); donor pairing 8; antibody 20 nM [1] of the same binder?
A: 10.8 pg/mL

Q: And the Mean IFNγ concentration, MLR + OX40L (1000 ng/ml); donor pairing 8; antibody 100 nM [1]?
A: 92.5 pg/mL

Q: And the Kd [2]?
A: 0.071 nM

Q: What about the koff [2] of the same binder?
A: 0.000112 s⁻¹

Q: And the kon [2]?
A: 1.58e+06 M⁻¹ s⁻¹
